Data as given in patent publication US20250059559A1 (FLAGSHIP PIONEERING INNOVATIONS V, published 2025).

Experiments:
[1] = target: the molecule itself; assay: self-assembly; negative-stain EM
[2] = target: the molecule itself; assay: self-assembly; heparin and SEC purification, EM
[3] = target: the molecule itself; assay: self-assembly; EM

B1: Ring 2 ORF1 fused to an N-terminal HIS6-tag (HIS-ORF1) (other)
chain: MPYYYRRRRYNYRRPRWYGRGWIRRPFRRRFRRKRRVRPTYTTIPLKQWQPPYKRTCYIKGQDCLIYYSNLRLGMNSTMYEKSIVPVHWPGGGSFSVSMLTLDALYDIHKLCRNWWTSTNQDLPLVRYKGCKITFYQSTFTDYIVRIHTELPANSNKLTYPNTHPLMMMMSKYKHIIPSRQTRRKKKPYTKIFVKPPPQFENKWYFATDLYKIPLLQIHCTACNLQNPFVKPDKLSNNVTLWSLNTISIQNRNMSVDQGQSWPFKILGTQSFYFYFYTGANLPGDTTQIPVADLLPLTNPRINRPGQSLNEAKITDHITFTEYKNKFTNYWGNPFNKHIQEHLDMILYSLKSPEAIKNEWTTENMKWNQLNNAGTMALTPFNEPIFTQIQYNPDRDTGEDTQLYLLSNATGTGWDPPGIPELILEGFPLWLIYWGFADFQKNLKKVTNIDTNYMLVAKTKFTQKPGTFYLVILNDTFVEGNSPYEKQPLPEDNIKWYPQVQYQLEAQNKLLQTGPFTPNIQGQLSDNISMFYKFYFKWGGSPPKAINVENPAHQIQYPIPRNEHETTSLQSPGEAPESILYSFDYRHGNYTTTALSRISQDWALKDTVSKITEPDRQQLLKQALECLQISEETQEKKEKEVQQLISNLRQQQQLYRERIISLLKDQ
notes: also called Ring 2 HIS-ORF1; not shown: N-terminal HIS6-tag
B1: binds [1].

B2: Ring 10 ORF1 fused to an N-terminal HIS6-tag (HIS-ORF1) (other)
chain: MPWWYRRRSYNPWRRRNWFRRPRKTIYRRYRRRRRWVRRKPFYKRKIKRLNIVEWQPKSIRKCRIKGMLCLFQTTEDRLSYNFDMYEESIIPEKLPGGGGFSIKNISLYALYQEHIHAHNIFTHTNTDRPLARYTGCSLKFYQSKDIDYVVTYSTSLPLRSSMGMYNSMQPSIHLMQQNKLIVPSKQTQKRRKPYIKKHISPPTQMKSQWYFQHNIANIPLLMIRTTALTLDNYYIGSRQLSTNVTIHTLNTTYIQNRDWGDRNKTYYCQTLGTQRYFLYGTHSTAQNINDIKLQELIPLTNTQDYVQGFDWTEKDKHNITTYKEFLTKGAGNPFHAEWITAQNPVIHTANSPTQIEQIYTASTTTFQNKKLTDLPTPGYIFITPTVSLRYNPYKDLAERNKCYFVRSKINAHGWDPEQHQELINSDLPQWLLLFGYPDYIKRTQNFALVDTNYILVDHCPYTNPEKTPFIPLSTSFIEGRSPYSPSDTHEPDEEDQNRWYPCYQYQQESINSICLSGPGTPKIPKGITAEAKVKYSFNFKWGGDLPPMSTITNPTDQPTYVVPNNFNETTSLQNPTTRPEHFLYSFDERRGQLTEKATKRLLKDWETKETSLLSTEYRFAEPTQTQAPQEDPSSEEEEESNLFERLLRQRTKQLQLKRRIIQTLKDLQKLE
notes: also called Ring 10 HIS-ORF1; not shown: N-terminal HIS6-tag
B2: binds [1].

B3: untagged Ring2 ORF1 (other)
chain: B1 chain
notes: also called LY2 ORF1
B3: binds [2].

B4: full-length Ring 10 ORF1 (residues 1-672) (other)
chain: B2 chain
notes: also called Ly1 ORF1; full-length ORF1
B4: binds [1].

B5: Ring 10 ORF1 delARM delCTD (residues 2-45 and 552-672 deleted) (other)
chain: MKIKRLNIVEWQPKSIRKCRIKGMLCLFQTTEDRLSYNFDMYEESIIPEKLPGGGGFSIKNISLYALYQEHIHAHNIFTHTNTDRPLARYTGCSLKFYQSKDIDYVVTYSTSLPLRSSMGMYNSMQPSIHLMQQNKLIVPSKQTQKRRKPYIKKHISPPTQMKSQWYFQHNIANIPLLMIRTTALTLDNYYIGSRQLSTNVTIHTLNTTYIQNRDWGDRNKTYYCQTLGTQRYFLYGTHSTAQNINDIKLQELIPLTNTQDYVQGFDWTEKDKHNITTYKEFLTKGAGNPFHAEWITAQNPVIHTANSPTQIEQIYTASTTTFQNKKLTDLPTPGYIFITPTVSLRYNPYKDLAERNKCYFVRSKINAHGWDPEQHQELINSDLPQWLLLFGYPDYIKRTQNFALVDTNYILVDHCPYTNPEKTPFIPLSTSFIEGRSPYSPSDTHEPDEEDQNRWYPCYQYQQESINSICLSGPGTPKIPKGITAEAKVKYSFNFKWGGDLPPMST
notes: also called Ring 10 delARM delCTD
B5: binds [1].

B6: Ring2 ORF1 with a deletion of the C-terminus amino acids 611-666 (pRTx-2652), Ring2 AnelloVLP (other)
chain: MPYYYRRRRYNYRRPRWYGRGWIRRPFRRRFRRKRRVRPTYTTIPLKQWQPPYKRTCYIKGQDCLIYYSNLRLGMNSTMYEKSIVPVHWPGGGSFSVSMLTLDALYDIHKLCRNWWTSTNQDLPLVRYKGCKITFYQSTFTDYIVRIHTELPANSNKLTYPNTHPLMMMMSKYKHIIPSRQTRRKKKPYTKIFVKPPPQFENKWYFATDLYKIPLLQIHCTACNLQNPFVKPDKLSNNVTLWSLNTISIQNRNMSVDQGQSWPFKILGTQSFYFYFYTGANLPGDTTQIPVADLLPLTNPRINRPGQSLNEAKITDHITFTEYKNKFTNYWGNPFNKHIQEHLDMILYSLKSPEAIKNEWTTENMKWNQLNNAGTMALTPFNEPIFTQIQYNPDRDTGEDTQLYLLSNATGTGWDPPGIPELILEGFPLWLIYWGFADFQKNLKKVTNIDTNYMLVAKTKFTQKPGTFYLVILNDTFVEGNSPYEKQPLPEDNIKWYPQVQYQLEAQNKLLQTGPFTPNIQGQLSDNISMFYKFYFKWGGSPPKAINVENPAHQIQYPIPRNEHETTSLQSPGEAPESILYSFDYRHGNYTTTALSRISQDWALKDTVSK
notes: also called Ring2 delCterm (Δ611-666) (7047); Ring2 AnelloVLP 2652
B6: binds [3].
